The text below walks through data of patent publication US20140377288A1 (University of Texas, published 2014).

The target of the test is T1, GST-hEphA5 (1-72 aa) (human, UniProt P54756 304-375).
T1 construct: also called first 72 amino acids of the region 304-467 of the hEphA5 protein fused to GST; not shown: Glutathione S-transferase (GST) fusion partner
T1 sequence: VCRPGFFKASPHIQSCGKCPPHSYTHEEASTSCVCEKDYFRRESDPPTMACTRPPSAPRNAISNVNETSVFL
The experiment in a line: ELISA with decreasing amount of 11C12 on GST fusion proteins. As for the experimental part: FIG. 10: Further 11C12 epitope mapping on human EphA5. ELISA assays were performed with decreasing amount of 11C12 antibody in the presence of various portions of human EphA5 fused to GST. GST fusion proteins included EphA5 sequence from the regions corresponding to amino acids 304-467 (SEQ ID NO:3) and are numbered relative to this region. GST fusion proteins included GST-hEphA5 (1-24 aa) (SEQ ID NO:4); GST-hEphA5 (1-48 aa) (SEQ ID NO:5); GST-hEphA5 (1-72 aa) (SEQ ID NO:6); GST-hEphA5 (1-95 aa) (SEQ ID NO:7); GST-hEphA5 (1-120 aa) (SEQ ID NO:8); GST-hEphA5 (1-144 aa) (SEQ ID NO:9); and GST-hEphA5 (1-164 aa) (SEQ ID NO:10).
Epitope mapping was performed with protein fragments of human EphA5. […] This region is provided as SEQ ID NO:3. Further epitope mapping was performed by ELISA using fusion proteins including EphA5 sequences within the 304-467 region (FIG. 10).

B1: 11C12 monoclonal anti-EphA5 antibody (antibody, mouse IgG1, V domains shown)
VH: EVTLKESGGGLVQPGGSRKLSCAASGFTFSTFGIHWVRQAPEKGLEWVAYISGASTTIYYADTVKGRFTISRDNPKNTLFLQMTSLRSEDTAMYYCARYGTSFPYGLDYWGQGTSVTVSS
VL: DIVMTQSPGSLAVSLGQRATISCKASQSVDYDGDSYMNWYQQKPGQPPKLLIYGASNLESGIPARFSGSGSGTDFTLNIHPVEEEDAASYYCQQSNEDPFTFGSGTKLEIK
notes: Murine IgG1 monoclonal antibody from a hybridoma; also called monoclonal antibody 11C12; 11C12 antibody
In the case of B1, the binding result is given as “binds”.
